Laboratory results from the Human Domainome abundance scans (Beltran et al. 2025).
± gives the uncertainty stated by the source.

B1: Receptor-interacting serine/threonine-protein kinase 2, residues 438 to 518; numbered along this chain, O43353 (parent)
chain: QWIQSKREDIVNQMTEACLNQSLDALLSRDLIMKEDYELVSTKPTRTSKVRQLLDTTDIQGEEFAKVIVQKLKDNKQMGLQ

Variants of: B1
Assay: abundance fitness (aPCA) (normalised: wild type 0, dead -1); higher = more abundant; growth selection in yeast, the domain comes from the species named
Details: Homo sapiens
R7G gave an abundance fitness of -0.563 ± 0.079.
With R7M the abundance fitness was -1.09 ± 0.42.
R7A showed an abundance fitness of -0.334 ± 0.081.
L39K gave an abundance fitness of 0.119 ± 0.19.
In the case of L39E, the abundance fitness is reported as -0.003 ± 0.14.
Variant L39S has an abundance fitness of -0.138 ± 0.071.
With D55P the abundance fitness was -0.676 ± 0.079.
Work on D55L yielded an abundance fitness of -0.132 ± 0.055.
D30C showed an abundance fitness of -0.332 ± 0.15.
Variant D30K has an abundance fitness of 0.06 ± 0.11.
In the case of D30W, the abundance fitness is reported as -1.12 ± 0.24.
A25E showed an abundance fitness of 0.183 ± 0.072.
With A25R the abundance fitness was -0.592 ± 0.063.
With F64T the abundance fitness was -0.142 ± 0.079.
Work on F64W yielded an abundance fitness of -0.384 ± 0.082.
F64V showed an abundance fitness of -0.236 ± 0.058.
F64E showed an abundance fitness of -0.123 ± 0.11.
Work on W2C yielded an abundance fitness of -0.556 ± 0.18.
W2M gave an abundance fitness of -0.4 ± 0.12.
With W2G the abundance fitness was -0.546 ± 0.084.
Variant T45Q has an abundance fitness of -0.652 ± 0.1.
For T45L, the abundance fitness was -0.696 ± 0.069.
Variant T45P has an abundance fitness of -0.579 ± 0.092.
Work on T45I yielded an abundance fitness of -0.87 ± 0.21.
For S22C, the abundance fitness was -0.017 ± 0.13.
S22G gave an abundance fitness of -0.5 ± 0.075.
With S22Q the abundance fitness was -0.796 ± 0.15.
In the case of N12Q, the abundance fitness is reported as -0.248 ± 0.23.
With N12R the abundance fitness was -0.008 ± 0.059.
N12D gave an abundance fitness of -0.089 ± 0.14.
Work on N12L yielded an abundance fitness of -0.068 ± 0.059.
Work on N12P yielded an abundance fitness of -0.978 ± 0.23.
For N12G, the abundance fitness was -0.162 ± 0.065.
In the case of I59C, the abundance fitness is reported as -0.029 ± 0.26.
With I59L the abundance fitness was 0.231 ± 0.23.
With L23M the abundance fitness was -0.274 ± 0.2.
For L23W, the abundance fitness was -0.911 ± 0.3.
Work on T47S yielded an abundance fitness of -0.061 ± 0.091.
T47D showed an abundance fitness of -0.152 ± 0.11.
In the case of T47V, the abundance fitness is reported as -0.153 ± 0.085.
For T47E, the abundance fitness was 0.201 ± 0.15.
With E38I the abundance fitness was 0.053 ± 0.15.
Variant E38Y has an abundance fitness of -0.237 ± 0.12.
E38Q gave an abundance fitness of -0.165 ± 0.12.
Variant E38G has an abundance fitness of -0.509 ± 0.084.
For A65E, the abundance fitness was -0.456 ± 0.15.
With A65Q the abundance fitness was -0.743 ± 0.16.
A65Y gave an abundance fitness of -0.691 ± 0.12.
E16Q showed an abundance fitness of -0.546 ± 0.12.
E16I showed an abundance fitness of -0.319 ± 0.11.
Work on E16P yielded an abundance fitness of -0.539 ± 0.078.
For E16T, the abundance fitness was -0.193 ± 0.079.
For E16V, the abundance fitness was -0.289 ± 0.067.
V40I showed an abundance fitness of 0.146 ± 0.19.
V40C gave an abundance fitness of -0.302 ± 0.11.
Work on V40E yielded an abundance fitness of -0.682 ± 0.13.
Work on V40N yielded an abundance fitness of -0.466 ± 0.38.
Variant V40T has an abundance fitness of -0.997 ± 0.2.
V40S gave an abundance fitness of -0.603 ± 0.079.
With L53R the abundance fitness was -0.643 ± 0.066.
In the case of L53K, the abundance fitness is reported as -0.366 ± 0.26.
For N75C, the abundance fitness was -0.2 ± 0.084.
In the case of N75F, the abundance fitness is reported as -0.431 ± 0.16.
For T57Y, the abundance fitness was -0.658 ± 0.17.
T57I gave an abundance fitness of 0.044 ± 0.25.
Variant T57S has an abundance fitness of 0.128 ± 0.062.
Variant T57A has an abundance fitness of 0.045 ± 0.051.
With T57M the abundance fitness was 0.108 ± 0.1.
T57W showed an abundance fitness of -0.738 ± 0.14.
For T57L, the abundance fitness was -0.002 ± 0.049.
For K66E, the abundance fitness was 0.096 ± 0.08.
For K66T, the abundance fitness was -0.187 ± 0.13.
K66A showed an abundance fitness of -0.172 ± 0.069.
Q21E gave an abundance fitness of -0.096 ± 0.1.
Work on Q21G yielded an abundance fitness of -0.432 ± 0.064.
Variant Q21V has an abundance fitness of -0.382 ± 0.085.
In the case of Q21H, the abundance fitness is reported as -0.562 ± 0.13.
In the case of I68K, the abundance fitness is reported as -0.909 ± 0.22.
I68P showed an abundance fitness of -0.462 ± 0.07.
I68Y gave an abundance fitness of -0.568 ± 0.24.
For I68F, the abundance fitness was -0.924 ± 0.21.
A17Y gave an abundance fitness of -0.137 ± 0.12.
A17D gave an abundance fitness of 0.042 ± 0.11.
In the case of A17W, the abundance fitness is reported as -0.485 ± 0.1.
A17K gave an abundance fitness of -0.072 ± 0.2.
For A17L, the abundance fitness was -0.186 ± 0.068.
A17F showed an abundance fitness of -0.839 ± 0.16.
With S48V the abundance fitness was -0.534 ± 0.11.
Work on S48I yielded an abundance fitness of -0.923 ± 0.23.
With S48N the abundance fitness was -0.892 ± 0.28.
Variant S48F has an abundance fitness of -0.527 ± 0.22.
With S48D the abundance fitness was 0.065 ± 0.096.
V67L gave an abundance fitness of -0.51 ± 0.06.
For V67I, the abundance fitness was 0.164 ± 0.14.
V67Q gave an abundance fitness of -0.568 ± 0.12.
V67C gave an abundance fitness of -0.33 ± 0.14.
For V67N, the abundance fitness was -0.651 ± 0.42.
V67E gave an abundance fitness of -0.294 ± 0.11.
E35T gave an abundance fitness of -0.118 ± 0.12.
For E35H, the abundance fitness was 0.055 ± 0.17.
S28C gave an abundance fitness of -0.283 ± 0.13.
Work on S28H yielded an abundance fitness of -0.25 ± 0.12.
Variant S28Y has an abundance fitness of -0.26 ± 0.1.
S28D gave an abundance fitness of -0.36 ± 0.16.
Work on Q52L yielded an abundance fitness of -0.57 ± 0.084.
For Q52A, the abundance fitness was 0.082 ± 0.074.
Q52M showed an abundance fitness of -0.42 ± 0.12.
With Q52Y the abundance fitness was -0.77 ± 0.41.
For Q52F, the abundance fitness was -0.403 ± 0.14.
For Q52W, the abundance fitness was -0.011 ± 0.058.
For G79V, the abundance fitness was -0.167 ± 0.29.
R46M gave an abundance fitness of -0.411 ± 0.12.
R46A showed an abundance fitness of -0.674 ± 0.11.
Work on N20H yielded an abundance fitness of 0.119 ± 0.38.
With N20G the abundance fitness was -0.159 ± 0.072.
In the case of L27F, the abundance fitness is reported as -0.353 ± 0.19.
In the case of L27Y, the abundance fitness is reported as -0.069 ± 0.13.
In the case of L27A, the abundance fitness is reported as -0.251 ± 0.088.
For L27H, the abundance fitness was -0.284 ± 0.18.
Work on E63I yielded an abundance fitness of -0.538 ± 0.14.
Work on E63D yielded an abundance fitness of -0.3 ± 0.22.
Work on E63N yielded an abundance fitness of -0.646 ± 0.19.
E63F gave an abundance fitness of -0.972 ± 0.18.
Work on S5D yielded an abundance fitness of 0.224 ± 0.27.
In the case of S5P, the abundance fitness is reported as -0.623 ± 0.15.
With S5L the abundance fitness was -0.216 ± 0.15.
S5H gave an abundance fitness of -0.824 ± 0.36.
Work on K76P yielded an abundance fitness of -0.314 ± 0.15.
K76L showed an abundance fitness of -0.125 ± 0.086.
Variant K76N has an abundance fitness of -0.203 ± 0.35.
In the case of E62V, the abundance fitness is reported as -0.853 ± 0.092.
Work on E62T yielded an abundance fitness of -0.629 ± 0.081.
Work on E62M yielded an abundance fitness of -0.545 ± 0.1.
For E62L, the abundance fitness was -0.808 ± 0.094.
Work on E62D yielded an abundance fitness of -0.648 ± 0.23.
With E62W the abundance fitness was -1.32 ± 0.3.
In the case of D36W, the abundance fitness is reported as -1.04 ± 0.16.
Work on D36Y yielded an abundance fitness of -0.608 ± 0.28.
With D36C the abundance fitness was -0.839 ± 0.23.
With D36R the abundance fitness was -0.718 ± 0.074.
D36E showed an abundance fitness of -0.147 ± 0.11.
With D36S the abundance fitness was -0.551 ± 0.077.
In the case of S41E, the abundance fitness is reported as -0.259 ± 0.11.
Variant S41M has an abundance fitness of 0.166 ± 0.047.
Variant L72Y has an abundance fitness of -0.695 ± 0.21.
C18G gave an abundance fitness of -0.425 ± 0.062.
C18V gave an abundance fitness of -0.004 ± 0.079.
In the case of I32F, the abundance fitness is reported as -0.842 ± 0.23.
For I32A, the abundance fitness was -0.686 ± 0.11.
In the case of K49R, the abundance fitness is reported as -0.283 ± 0.14.
In the case of K49Q, the abundance fitness is reported as -0.786 ± 0.21.
In the case of K49S, the abundance fitness is reported as -0.58 ± 0.12.
K49P showed an abundance fitness of -0.625 ± 0.13.
Variant K49Y has an abundance fitness of -0.625 ± 0.46.
K49M showed an abundance fitness of -0.137 ± 0.23.
T56N showed an abundance fitness of -0.572 ± 0.22.
Variant T56R has an abundance fitness of -0.533 ± 0.067.
In the case of T56I, the abundance fitness is reported as 0.19 ± 0.15.
D74M gave an abundance fitness of -0.399 ± 0.11.
Variant K43W has an abundance fitness of -1.04 ± 0.34.
D9C showed an abundance fitness of -0.341 ± 0.19.
Variant D9V has an abundance fitness of -0.172 ± 0.078.
Variant D9K has an abundance fitness of -0.437 ± 0.15.
Work on D9F yielded an abundance fitness of -0.498 ± 0.28.
With D9T the abundance fitness was -0.331 ± 0.098.
In the case of D9W, the abundance fitness is reported as -0.147 ± 0.088.
V11F gave an abundance fitness of -0.777 ± 0.46.
